Source: PMC10285447

How the values were obtained:
[1] = molecular target: H4-IgM-P (pentameric H4 IgM) (human) (UniProt P01591); experiment: ELISA
[2] = molecular target: P5C3-IgM-P (pentameric P5C3 IgM) (human) (UniProt P01591); experiment: ELISA; […] (from 500 ng/mL with P5C3, […]

## SARS-CoV-2 spike protein RBD (Wuhan strain), recombinant (from UniProt P0DTC2 319-541) (domain or fragment)
[1]
  EC50: 0.169 nM
[2]
  EC50: 0.016 nM
